The target in the assay is Orai3 N-terminal peptide aa 52–65 (human) (UniProt Q9BRQ5). In words: SPR. (In SPR one partner is held on a chip, and binding of the other changes the refractive index at the surface.)

“Calmodulin from bovine testes (from UniProt P62157 1-149) (natural protein)” returned a response (resonance units) (resonance units) of 207.

(Values after article PMC3173129.)
